B1: DNA replication regulator SLD3 (Saccharomyces cerevisiae), P53135 (parent)
chain: METWEVIASVKEATKGLDLSLDHPLIIKSEDVPSNILQLLQQKNRRQLKHICMKSRKEYFLLEEYGPGFWVKWPYNYFNGYSLPERRTEVVTTVERERAKRETLKTWDELKFKELLHLWSEEPKGSCKLEKDKDLKLDMNPPDMKGESKINDYYSDPKEYIESKYYDALFSIHTPLAYFVKSNLVRLKNTCRTKYGSDSYKIAYQAMLQKFLLSIVQFKDRHDNRLLLEPFSSPIADEKRKNCLTKFVIQDENKNSSTIADLCVVLKSREIKLQILLLLEIIGLNDLDWNFRDFEKKYKLKLKKRSLNLTKKGLVRRRSKKKTSEKDKGIERITTSLDYCEQLDLYLDRACILDILLSSETPNPDAIEASNGTIQEHKKNILDKSKEASLVGFINYVLIPYFNKKVPHAVEFIIQKLKGPSMRPKRALKKVNDSTNVSSPNTVETYNRLSTSQRASRSSIINSVPSSPALRRVDANLFSRKSIASPTPELLNSRTNSNLNEFLESETRSLKRPSQLGRTKSDLTMNHLQKRQFSVSDLSTTRVPNSSTITLKTPFSHSTINAYKTMNNSFRRVGKRKDINETIRLHERVDSEENVQVQATPAVKKRTVTPNKKAQLQSIIESPLNFKDDDTHEGRKNTSNITSTPTNKPPENSSKRRVRRRLFAPEST
partner: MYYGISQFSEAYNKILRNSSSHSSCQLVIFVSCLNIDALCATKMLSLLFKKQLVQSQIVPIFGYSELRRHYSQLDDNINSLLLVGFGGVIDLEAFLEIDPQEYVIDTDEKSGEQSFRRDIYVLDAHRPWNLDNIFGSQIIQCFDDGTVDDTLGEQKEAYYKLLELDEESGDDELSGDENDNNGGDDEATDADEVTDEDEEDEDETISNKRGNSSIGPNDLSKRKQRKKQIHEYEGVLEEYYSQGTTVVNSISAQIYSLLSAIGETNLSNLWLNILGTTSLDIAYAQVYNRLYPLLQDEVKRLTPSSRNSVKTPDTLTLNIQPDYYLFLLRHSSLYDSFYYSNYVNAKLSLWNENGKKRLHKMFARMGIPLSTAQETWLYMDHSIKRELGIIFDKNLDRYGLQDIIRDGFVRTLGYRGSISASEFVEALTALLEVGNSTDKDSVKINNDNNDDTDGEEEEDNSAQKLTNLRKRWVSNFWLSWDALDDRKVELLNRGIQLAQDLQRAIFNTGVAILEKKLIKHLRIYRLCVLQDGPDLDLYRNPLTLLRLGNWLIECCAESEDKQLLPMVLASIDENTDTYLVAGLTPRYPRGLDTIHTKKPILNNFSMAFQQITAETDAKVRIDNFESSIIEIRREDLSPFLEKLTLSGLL

Variants of: B1
Conditions: with cdc45_yeast CDC45, Q08032

Row | Variant | effect of a mutation on the interaction
1 | S306D;T310D | disrupting interaction

Source: IntAct's records for PubMed 20835227
